Earlier results on 1 substance are cited in article PMC8043720.

This series addresses NaV1.7 (Homo sapiens) (UniProt Q15858).
UniProt Q15858, sequence (Q15858 whole entry): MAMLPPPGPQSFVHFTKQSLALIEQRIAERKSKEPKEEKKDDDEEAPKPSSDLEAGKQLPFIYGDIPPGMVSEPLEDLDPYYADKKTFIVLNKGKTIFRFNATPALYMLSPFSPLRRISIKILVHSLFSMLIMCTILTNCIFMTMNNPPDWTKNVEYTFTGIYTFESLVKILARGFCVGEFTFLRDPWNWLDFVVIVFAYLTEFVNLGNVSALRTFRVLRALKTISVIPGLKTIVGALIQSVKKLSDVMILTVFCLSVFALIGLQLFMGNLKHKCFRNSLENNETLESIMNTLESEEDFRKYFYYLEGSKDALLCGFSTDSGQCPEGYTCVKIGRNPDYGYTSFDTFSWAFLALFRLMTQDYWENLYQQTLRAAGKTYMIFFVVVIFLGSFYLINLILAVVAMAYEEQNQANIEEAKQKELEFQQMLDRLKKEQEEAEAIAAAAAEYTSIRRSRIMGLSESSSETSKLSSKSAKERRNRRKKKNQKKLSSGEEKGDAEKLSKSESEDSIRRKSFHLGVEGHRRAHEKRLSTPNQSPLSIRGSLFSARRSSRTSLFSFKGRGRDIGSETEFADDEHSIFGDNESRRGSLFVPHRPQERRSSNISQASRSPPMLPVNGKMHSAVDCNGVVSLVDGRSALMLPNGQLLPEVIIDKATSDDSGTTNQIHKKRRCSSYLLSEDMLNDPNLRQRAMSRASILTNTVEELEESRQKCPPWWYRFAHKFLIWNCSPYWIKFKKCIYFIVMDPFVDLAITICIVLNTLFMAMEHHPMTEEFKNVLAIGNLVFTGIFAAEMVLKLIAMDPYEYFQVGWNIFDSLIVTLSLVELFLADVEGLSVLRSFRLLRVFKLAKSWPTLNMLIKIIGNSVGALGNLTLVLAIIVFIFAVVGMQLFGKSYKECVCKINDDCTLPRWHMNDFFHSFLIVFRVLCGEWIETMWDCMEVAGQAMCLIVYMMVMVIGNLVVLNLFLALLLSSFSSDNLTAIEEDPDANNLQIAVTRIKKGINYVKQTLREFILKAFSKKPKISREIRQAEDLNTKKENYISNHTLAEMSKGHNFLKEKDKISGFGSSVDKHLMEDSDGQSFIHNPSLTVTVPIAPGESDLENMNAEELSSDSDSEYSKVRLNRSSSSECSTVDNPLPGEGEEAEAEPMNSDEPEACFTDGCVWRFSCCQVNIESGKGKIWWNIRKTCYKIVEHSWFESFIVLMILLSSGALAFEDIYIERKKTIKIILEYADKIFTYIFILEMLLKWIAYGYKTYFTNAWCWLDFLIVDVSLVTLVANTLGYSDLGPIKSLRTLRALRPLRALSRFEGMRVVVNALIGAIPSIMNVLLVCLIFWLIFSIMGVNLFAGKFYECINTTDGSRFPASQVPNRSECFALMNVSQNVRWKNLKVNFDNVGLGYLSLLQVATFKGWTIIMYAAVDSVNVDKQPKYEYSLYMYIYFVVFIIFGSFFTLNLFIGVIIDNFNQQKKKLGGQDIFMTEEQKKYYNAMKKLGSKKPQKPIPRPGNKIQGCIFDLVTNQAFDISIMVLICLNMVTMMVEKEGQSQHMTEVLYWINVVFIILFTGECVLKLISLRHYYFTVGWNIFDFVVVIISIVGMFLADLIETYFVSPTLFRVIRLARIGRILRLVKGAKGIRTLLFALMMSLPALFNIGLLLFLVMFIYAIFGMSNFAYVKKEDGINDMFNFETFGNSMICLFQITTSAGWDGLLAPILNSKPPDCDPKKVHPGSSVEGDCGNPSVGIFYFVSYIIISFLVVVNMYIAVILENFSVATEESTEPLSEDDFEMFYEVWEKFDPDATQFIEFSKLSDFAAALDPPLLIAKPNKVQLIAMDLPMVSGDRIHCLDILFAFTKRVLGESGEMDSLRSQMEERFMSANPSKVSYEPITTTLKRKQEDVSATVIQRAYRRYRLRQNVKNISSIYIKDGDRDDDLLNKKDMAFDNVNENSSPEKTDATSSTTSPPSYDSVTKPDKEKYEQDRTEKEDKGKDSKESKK

With HwTx-IV (from UniProt P83303), the Kd was 26 nM.

As usually defined, the Kd is the equilibrium constant for the complex coming apart.
